Biological target: T1, recombinant form of the extracellular domain of HER2 (amino acids 23-652) (UniProt P04626 23-652)
T1 construct: HER2 (neu/ErbB2), extracellular domain, amino acids 23-652; Bought recombinant protein; also called rHER2; neu; source: bought: e-bioscience, UK
Assay: SPR; competitive binding: fixed rHER2 concentration incubated 1 h with 5-, 50- and 500-fold excess of Herceptin, flowed over immobilised EPO
Details: both partners purified

B1: Eosinophil Peroxidase (EPO) (enzyme)
chain 1: not shown
chain 2: VDCERTCAQLPPCFPIKIPPNDPRIKNQRDCIPFFRSAPSCPQNKNRVRNQINALTSFVDASMVYGSEVSLSLRLRNRTNYLGLLAINQRFQDNGRALLPFDNLHDDPCLLTNRSARIPCFLAGDTRSTETPKLAAMHTLFMREHNRLATELRRLNPRWNGDKLYNEARKIMGAMVQIITYRDFLPLVLGKARARRTLGHYRGYCSNVDPRVANVFTLAFRFGHTMLQPFMFRLDSQYRASAPNSHVPLSSAFFASWRIVYEGGIDPILRGLMATPAKLNRQDAMLVDELRDRLFRQVRRIGLDLAALNMQRSRDHGLPGYNAWRRFCGLSQPRNLAQLSRVLKNQDLARKFLNLYGTPDNIDIWIGAIAEPLLPGARVGPLLACLFENQFRRARDGDRFWWQKRGVFTKRQRKALSRISLSRIICDNTGITTVSRDIFRANIYPRGFVNCSRIPRLNLSAWRGT
notes: Eosinophil peroxidase, human, light chain of the mature enzyme; Eosinophil peroxidase, human, heavy chain of the mature enzyme; Native granule protein; source: purified from eosinophils of patients with marked eosinophilia (0.01 M HCl extraction, Sephadex G-50)
binding result: binds

Source: PMC5070911 (Clinical Immunology (Orlando, Fla.), 2016)
